Laboratory results as given in article PMC9675734, “Phosphorylation disrupts long-distance electron transport in cytochrome c” (Nature Communications, 2022).

Biological target: T1, soluble domain of Arabidopsis thaliana cytochrome c1 (Arabidopsis thaliana, UniProt Q9FKS5 64-265)
T1 construct: Hemeprotein; Immobilised on Au(111) through Cys10 (AFM, EC-STM) or by amine coupling on the biochip (SPR); also called Cc1; plant cytochrome Cc1; source: E. coli BL21 (DE3), pET-Cc1 with pEC86 (ccmABCDEFGH), purified (Nuvia Q anion exchange, ENrich SEC 70)
T1 sequence (looked up): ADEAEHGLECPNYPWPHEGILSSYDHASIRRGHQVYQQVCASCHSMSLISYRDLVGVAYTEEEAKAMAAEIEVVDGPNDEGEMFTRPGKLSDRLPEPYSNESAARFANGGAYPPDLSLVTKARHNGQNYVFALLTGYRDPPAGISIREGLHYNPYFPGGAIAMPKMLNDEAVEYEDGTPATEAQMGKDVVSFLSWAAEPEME
Assay: SPR; SPRi; Cc1 immobilised by direct amine coupling on a CS SPRi-Biochip (10 and 15 uM drops); WT or Y48pCMF Cc flowed at 2.5 to 10 uM, 50 uL/min; 298 K; 10 mM sodium phosphate buffer pH 6.5; reference spots with rabbit serum albumin subtracted; 1:1 binding model
Conditions: both partners purified

B1: Homo sapiens WT cytochrome c (natural protein)
chain: not shown
notes: cytochrome c, human, CYCS gene in plasmid pBTR1-WT; Hemeprotein (heme c attached by the co-expressed heme lyase); Used as analyte in SPR; also called Cc; WT Cc; source: E. coli BL21 (DE3), pBTR1-WT with yeast Cc heme lyase (CYC3), purified (Nuvia S cation exchange)
Kd: 527 nM
koff: 0.00318 s⁻¹
kon: 6540 M⁻¹ s⁻¹
